In US20190029975A1, “TOCOPHEROL AND TOCOTRIENOL QUINONE DERIVATIVES FOR INCREASING THIOSULFATE LEVELS OR DECREASING HYDROGEN SULFIDE LEVELS” (BIOELECTRON TECHNOLOGY CORPORATION, priority 2016, published 2019):

Substrate: CC(C)=CCC/C(C)=C/CC/C(C)=C/CC[C@@](C)(O)CCC1=C(C)C(=O)C(C)=C(C)C1=O
Assay: Kinetic parameters of EPI-743 with SQOR
Assay type: biochemical, human
Details: other: 200 micromolar Na2S, 2 mM Na2SO3, pH 7.5, reduced oxygen (<1000 ppm), 30.0 °C
Excerpt: Human sulfide:quinone oxidoreductase (SQOR) protein was expressed and purified according to the method described in Jackson, M.R., et al. “Human Sulfide:Quinone Oxidoreductase Catalyzes the First Step in Hydrogen Sulfide Metabolism and Produces a Sulfane Sulfur Metabolite”, Biochemistry, Publication Date (Web): 1 Aug 2012, with the following exceptions: (1) a chaperone plasmid set (Plasmid pG-KJE8, plasmid #1 in catalog no. 3340) from Takara Bio Inc. (Japan) was used; (2) DHPC detergent was replaced with the following: 1.0% (w/v) CHAPS, 0.5% deoxycholate, or 1.0% octylmaltoside. The detergent was used in the initial lysis buffer, and removed in the IMAC purification step (no detergents in the storage conditions); (3) the ion-exchange (Q-sepharose) chromatography step was not used in the purification. The final SQOR protein contained amino acids 42-450 of the human SQOR protein.
Target protein was purified on IMAC to ≥90% purity (on Ni resin). Target protein was stored in 25 mM Tris pH 7.5, 150mM NaCl, 2 mM DTT 20% glycerol.
EPI-743 was assayed for activity with SQOR. […]
Briefly, SQOR enzyme, compound, inorganic sulfide (200 micromolar Na2S) and a sulfur acceptor (2 mM Na2SO3) were brought together. The reduction of the quinone substrate to hydroquinone product in the presence of sulfide ion, sulfur acceptor and SQOR enzyme was monitored by the decrease in quinone concentration over time, by observing the UV signal diagnostic for the specific quinone (See Table 3):
General assay conditions: Assays were performed in 100 mM Tris, pH 7.5, 0.5 mM EDTA. SQOR was included at approximately 5 nM, as estimated by total protein concentration determined by Bradford assay with BSA as standard and the estimated purity of SQOR from SDS-PAGE. […]
The kinetic parameters of compounds with SQOR were determined by varying the concentration of the compound over a suitable range and interrogating the impact of that variation on the enzymatic rate.
The parameters kcat and Km, for example, can be determined by nonlinear fitting of the rate data to the Michaelis-Menten equation: […]

B1: Human sulfide:quinone oxidoreductase (SQOR) (Homo sapiens) (protein)
chain: NHYEVLVLGGGSGGITMAARMKRKVGAENVAIVEPSERHFYQPIWTLVGAGAKQLSSSGRPTASVIPSGVEWIKARVTELNPDKNCIHTDDDEKISYRYLIIALGIQLDYEKIKGLPEGFAHPKIGSNYSVKTVEKTWKALQDFKEGNAIFTFPNTPVKCAGAPQKIMYLSEAYFRKTGKRSKANIIFNTSLGAIFGVKKYADALQEIIQERNLTVNYKKNLIEVRADKQEAVFENLDKPGETQVISYEMLHVTPPMSPPDVLKTSPVADAAGWVDVDKETLQHRRYPNVFGIGDCTNLPTSKTAAAVAAQSGILDRTISVIMKNQTPTKKYDGYTSCPLVTGYNRVILAEFDYKAEPLETFPFDQSKERLSMYLMKADLMPFLYWNMMLRGYWGGPAFLRKLFHLGMS
notes: The final SQOR protein contained amino acids 42-450 of the human SQOR protein; His tag (inferred from IMAC purification on Ni resin); made in house; E. coli is inferred from the Takara chaperone plasmid pG-KJE8 and from own knowledge of the cited Jackson et al. 2012 method
Work on B1 yielded a Km of 200 µM, a kcat of 76 s⁻¹ and a kcat/Km of 400000 M⁻¹ s⁻¹.
